The values below come from patent publication US20210206856A1 (PANDION OPERATIONS, published 2021).

The target in assay [1] is T1, mouse MAdCAM expressed on cells (mouse, UniProt Q61826 22-405).
T1 construct: whole, on cells
T1 sequence (looked up): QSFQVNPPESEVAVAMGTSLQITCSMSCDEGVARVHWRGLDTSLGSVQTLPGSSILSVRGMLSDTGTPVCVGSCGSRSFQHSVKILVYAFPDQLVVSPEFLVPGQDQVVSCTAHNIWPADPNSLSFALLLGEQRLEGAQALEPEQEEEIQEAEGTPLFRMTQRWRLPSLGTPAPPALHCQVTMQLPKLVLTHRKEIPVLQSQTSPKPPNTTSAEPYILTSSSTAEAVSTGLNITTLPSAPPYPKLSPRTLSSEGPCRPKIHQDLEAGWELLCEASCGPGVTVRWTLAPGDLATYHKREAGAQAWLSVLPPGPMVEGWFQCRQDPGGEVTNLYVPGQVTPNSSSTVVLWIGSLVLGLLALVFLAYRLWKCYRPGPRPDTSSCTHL
As to the kind of experiment: cell binding.

The target in assay [2] is T2, human MAdCAM expressed on cells (human, UniProt Q13477 19-382).
T2 construct: whole, on cells; also called MADCAM1
T2 sequence (looked up): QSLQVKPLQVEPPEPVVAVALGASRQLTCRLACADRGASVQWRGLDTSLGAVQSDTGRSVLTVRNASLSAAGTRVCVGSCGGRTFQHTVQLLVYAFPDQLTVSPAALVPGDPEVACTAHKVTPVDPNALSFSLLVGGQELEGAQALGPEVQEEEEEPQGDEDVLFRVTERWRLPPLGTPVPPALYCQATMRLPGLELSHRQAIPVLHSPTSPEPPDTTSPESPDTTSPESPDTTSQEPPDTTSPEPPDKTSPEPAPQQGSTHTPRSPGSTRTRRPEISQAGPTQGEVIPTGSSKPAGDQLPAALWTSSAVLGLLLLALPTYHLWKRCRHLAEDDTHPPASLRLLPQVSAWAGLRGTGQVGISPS
Description: cell binding.

Where a chain is given by its changes, count along the chain named.

B1: MAdCAM Antibody Table 1 Clone 37 (scFv)
scFv: QVQLVQSGAEVKKPGASVKVSCKASGYTFSKHFVHWVRQAPGQGLEWMGWMNPNSGNSGYAQKFQGRVTMTRDTSTSTVYMELSSLRSEDTAVYYCARGEGGYYYYGMDVWGQGTLVTVSSGGGGSGGGGSGGGGSGGGGSDIQMTQSPSSLSASVGDRVTITCRASQSISSWLAWYQQKPGKAPKLLIYAASTLQSGVPSRFSGSGSGTDFTLTISSLQPEDFATYYCQQSYSTPWTFGQGTKVEIK
As to B1, the binding result in assay [1] is recorded as “no binding”; in assay [2], “binds”.

B2: MAdCAM Antibody Table 1 Clone 31 (scFv)
scFv: QVQLVQSGAEVKKPGASVKVSCKASGYTFTSYYMHWVRQAPGQGLEWMGIINPSGGSTSYAQKFQGRVTMTRDTSTSTVYMELSSLRSEDTAVYYCARDTGYSYGRYYYYGMDVWGQGTLVTVSSGGGGSGGGGSGGGGSGGGGSDIQMTQSPSSLSASVGDRVTITCRASQSIGRWLAWYQQKPGKAPKLLIYDASNLQSGVPSRFSGSGSGTDFTLTISSLQPEDFATYYCQQSYSIPITFGQGTKVEIK
For the molecule B2, the binding result in assay [1] is “no binding”; in assay [2], “binds”.

B3: MAdCAM Antibody Table 1 Clone 36 (scFv)
scFv: B2 scFv with S31G, Y32H, L120T, Q245G
B3: the binding result in assay [1] is on record as “no binding”; in assay [2], “binds”.

B4: MAdCAM Antibody Table 1 Clone 43 (scFv)
scFv: EVQLLESGGGLVQPGGSLRLSCAASGFTFDDFAMHWVRQAPGKGLEWVSGISGNGDSRYYADSVKGRFTISRDNSKNTLYLQMNSLRAEDTAVYYCARDASYGGNYGMDVWGQGTTVTVSSGGGGSGGGGSGGGGSGGGGSDIQMTQSPSSLSASVGDRVTITCQASQDIRNYLNWYQQKPGKAPKLLIYKASTLESGVPSRFSGSGSGTDFTLTISSLQPEDFATYYCQQANSFPLTFGPGTKVDIK
Turning to B4, the binding result was “no binding” in assay [1] and “binds” in assay [2].

B5: MAdCAM Antibody Table 1 Clone 56 (scFv)
scFv: EVQLLESGGGLVQPGGSLRLSCAASGFTFDDYAMHWVRQAPGKGLEWVSAISGGGEDTYYADSVKGRFTISRDNSKNTLYLQMNSLRAEDTAVYYCARDASYGGNYGMDVWGQGTTVTVSSGGGGSGGGGSGGGGSGGGGSDIQMTQSPSSLSASVGDRVTITCQASQDIRNYLNWYQQKPGKAPKLLIYKASSLESGVPSRFSGSGSGTDFTLTISSLQPEDFATYYCQQANSYPVTFGGGTKVEIK
B5: the binding result in assay [1] was “no binding”; in assay [2], “binds”.

B6: MAdCAM Antibody Table 1 Clone 35 (scFv)
scFv: EVQLLESGGGLVQPGGSLRLSCAASGFSFSSYTMNWVRQAPGKGLEWVSFITSSSRTIYYADSVKGRFTISRDNSKNTLYLQMNSLRAEDTAVYYCARDRRGDYGDSWYFDLWGRGTLVTVSSGGGGSGGGGSGGGGSGGGGSEIVMTQSPATLSVSPGERATLSCRASQSVRNYLAWYQQKPGQAPRLLIYGASTRATGIPARFSGSGSGTEFTLTISSLQSEDFAVYYCQQYGSSPLTFGGGTKVEIK
For the molecule B6, the results for the binding result in assay [1] and in assay [2] were “no binding” and “binds”, respectively.

B7: MAdCAM Antibody Table 1 Clone 39 (scFv)
scFv: QVQLVQSGAEVKKPGASVKVSCKASGYTFTSYYMHWVRQAPGQGLEWMGWMNPNSGNTGYAQKFQGRVTMTRDTSTSTVYMELSSLRSEDTAVYYCARDLGYYDSSGYFGAFDIWGQGTTVTVSSGGGGSGGGGSGGGGSGGGGSDIQMTQSPSSLSASVGDRVTITCQSSEDISSSLNWYQQKPGKAPKLLIYAASSLQIGVPSRFSGSGSGTDFTLTISSLQPEDFATYYCQQTYSTPYTFGQGTKVEIK
Regarding B7, the binding result is recorded as “no binding” in assay [1] and “binds” in assay [2].

B8: MAdCAM Antibody Table 1 Clone 33 (scFv)
scFv: QVQLVQSGAEVKKPGASVKVSCKASGYTFTSYGISWVRQAPGQGLEWMGWMHPKSGDTGLTQKFQGRVTMTRDTSTSTVYMELSSLRSEDTAVYYCARDTPYYYYGMDVWGQGTTVTVSSGGGGSGGGGSGGGGSGGGGSDIQMTQSPSSLSASVGDRVTITCRASQSISSWLAWYQQKPGKAPKLLIYAASSLQSGVPSRFSGSGSGTDFTLTISSLQPEDFATYYCQQSYSVPITFGQGTKVEIK
For B8, the values for the binding result in assay [1] and in assay [2] were “no binding” and “binds”, respectively.

B9: MAdCAM Antibody Table 1 Clone 44 (scFv)
scFv: EVQLVESGGGLVKPGGSLRLSCAASGFTFSSYWMSWVRQAPGKGLEWVSAIGTGGGTYYAAPVKGRFTISRDDSKNTLYLQMNSLKTEDTAVYYCAREWLVPYYGMDVWGQGTTVTVSSGGGGSGGGGSGGGGSGGGGSDIQMTQSPSSLSASVGDRVTITCRASQSISRWLAWYQQKPGKAPKLLIYGASNLQSGVPSRFSGSGSGTDFTLTISSLQPEDFATYYCQQSYSTPWTFGQGTKVEIK
Turning to B9, the binding result in assay [1] is reported as “no binding”; in assay [2] it was “binds”.

B10: MAdCAM Antibody Table 1 Clone 40 (scFv)
scFv: QVQLVQSGAEVKKPGASVKVSCKASGYTFTSYGISWVRQAPGQGLEWMGIINPRGGSTIFAQKFQGRVTMTRDTSTSTVYMELSSLRSEDTAVYYCARGTRSSGWYGWFDPWGQGTLVTVSSGGGGSGGGGSGGGGSGGGGSDIQMTQSPSSLSASVGDRVTITCRASQGIGNWLAWYQQKPGKAPKLLIYAASNLETGVPSRFSGSGSGTDFTLTISSLQPEDFATYYCQQIHSYPLTFGGGTKVEIK
For B10, the binding result in assay [1] was “no binding”; in assay [2], “binds”.

B11: MAdCAM Antibody Table 1 Clone 38 (scFv)
scFv: EVQLLESGGGLVQPGGSLRLSCAASGFTFGSYSMSWVRQAPGKGLEWVSAIGTGGGTYYADSVKGRFTISRDNSKNTLYLQMNSLRAEDTAVYYCAKGTPYYYYYGMDVWGQGTMVTVSSGGGGSGGGGSGGGGSGGGGSDIQMTQSPSSLSASVGDRVTITCRASQPLSNWLAWYQQKPGKAPKLLIYAASSLQSGVPSRFSGSGSGTDFTLTISSLQPEDFATYYCQQAISFPLTFGGGTKVEIK
As to B11, the binding result in assay [1] is “no binding”; in assay [2], “binds”.

B12: MAdCAM Antibody Table 1 Clone 27 (scFv)
scFv: QVQLVQSGAEVKKPGASVKVSCKASGYTFTGYYIHWVRQAPGQGLEWMGWMNPNSGNTGYAQKFQGRVTMTRDTSTSTVYMELSSLRSEDTAVYYCARDPGFLGYCSGGSCYDGWFDPWGQGTLVTVSSGGGGSGGGGSGGGGSGGGGSDIQMTQSPSSLSASVGDRVTITCRASQSISSYLHWYQQKPGKAPKLLIYAASSLQSGVPSRFSGSGSGTDFTLTISSLQPEDFATYYCQQSYTAPYTFGQGTKLEIK
With B12, the binding result in assay [1] is reported as “no binding”; in assay [2], “binds”.

B13: MAdCAM Antibody Table 1 Clone 32 (scFv)
scFv: QVQLVQSGAEVKKPGASVKVSCKASGYTLTDYYMHWVRQAPGQGLEWMGIINPSGGSTSYAQKFQGRVTMTRDTSTSTVYMELSSLRSEDTAVYYCAREEYSSSSGYFDYWGQGTLVTVSSGGGGSGGGGSGGGGSGGGGSDIQMTQSPSSLSASVGDRVTITCRASQGISSWLAWYQQKPGKAPKLLIYAASSLQSGVPSRFSGSGSGTDFTLTISSLQPEDFATYYCQQSYSTPLTFGQGTKVEIK
For the molecule B13, the binding result was “no binding” in assay [1] and “binds” in assay [2].

B14: MAdCAM Antibody Table 1 Clone 42 (scFv)
scFv: QVQLVQSGAEVKKPGSSVKVSCKASGGTLSRYGVSWVRQAPGQGLEWMGGIIPIFGTTNYAQKFQGRVTITADESTSTAYMELSSLRSEDTAVYYCARDRVYYDSSGYPTWYFDLWGRGTLVTVSSGGGGSGGGGSGGGGSGGGGSEIVMTQSPATLSVSPGERATLSCRASQSVSSSYLAWYQQKPGQAPRLLIYGASTRATGIPARFSGSGSGTEFTLTISSLQSEDFAVYYCQQYGSSPITFGQGTKVEIK
As to B14, the binding result in assay [1] is on record as “no binding”; in assay [2] it was “binds”.

B15: MAdCAM Antibody Table 1 Clone 29 (scFv)
scFv: QVQLVQSGAEVKKPGASVKVSCKASGYTFTSYYMHWVRQAPGQGLEWMAWMNPNSGNTGYAQKFQGRVTMTRDTSTSTVYMELSSLRSEDTAVYYCARDYDFWSGSLGYWGQGTLVTVSSGGGGSGGGGSGGGGSGGGGSDIQMTQSPSSLSASVGDRVTITCRASQGISNYLAWYQQKPGKAPKLLIYAASSLQSGVPSRFSGSGSGTDFTLTISSLQPEDFATYYCQQSYSTPWTFGQGTKVEIK
As for B15, the results for the binding result in assay [1] and in assay [2] were “no binding” and “binds”, respectively.

B16: MAdCAM Antibody Table 1 Clone 28 (scFv)
scFv: QVQLVQSGAEVKKPGASVKVSCKASGYTFTDYFLHWVRQAPGQGLEWMGWMNPTSGNTGYAQKFQGRVTMTRDTSTSTVYMELSSLRSEDTAVYYCAREGEGSGFDYWGQGTLVTVSSGGGGSGGGGSGGGGSGGGGSDIQMTQSPSSLSASVGDRVTITCRASQGINSWLAWYQQKPGKAPKLLIYDASNLETGVPSRFSGSGSGTDFTLTISSLQPEDFATYYCQQSYSTPLTFGGGTKVEIK
Consider B16, for which the binding result in assay [1] was “no binding”; in assay [2] it was “binds”.
